US20210380703A1

Target: human Fc (human)
Experiment: ELISA, negative control

Row | Binder | optical density
1 | 371_E06 (antibody, V domains shown) VH: EVQLLESGGGLVQPGGSLRLSCAASGFTFSSYSMNWVRQAPGKGLEWVSGINYNGGYTSYADSVKGRFTISRDNSKNTLYLQMNSLRAEDTAVYYCARGANWHDTALDYWGQGTLVTVSS VL: DIQMTQSPSSLSASVGDRVTITCRASQSISTYLNWYQQKPGKAPKLLIYAVTSLHSGVPSRFSGSGSGTDFTLTISSLQPEDFATYYCQQSYESPLTFGGGTKVEIK | 0.33 OD
2 | 371_E07 (antibody, V domains shown) VH: EVQLLESGGGLVQPGGSLRLSCAASGFTFDSYSMNWVRQAPGKGLEWVAGINYNGGYTSYADSVKGRFTISRDNSKNTLYLQMNSLRAEDTAVYYCARGANWHDTALDYWGQGTLVTVSS VL: DIQMTQSPSSLSASVGDRVTITCRASQSIISYLNWYQQKPGKAPKLLIYAATSLASGVPSRFSGSGSGTDFTLTISSLQPEDFATYYCQQSYESPLTFGGGTKVEIK | 0.337 OD
3 | 372_B02 (antibody, V domains shown) VH: EVQLLESGGGLVQPGGSLRLSCAASGFTFSSYSMNWVRQAPGKGLEWVSGINYNSGYTSYADSVKGRFTISRDNSKNTLYLQMNSLRAEDTAVYYCARGANWHDTALDYWGQGTLVTVSS VL: DIQMTQSPSSLSASVGDRVTITCRASQSILSYVNWYQQKPGKAPKLLIYAVTSLASGVPSRFSGSGSGTDFTLTISSLQPEDFATYYCQQSYETPLTFGGGTKVEIK | 0.371 OD
4 | 372_D03 (antibody, V domains shown) VH: EVQLLESGGGLVQPGGSLRLSCAASGFTFSSYSMNWVRQAPGKGLEWVAGINYNSGYKSYADSVKGRFTISRDNSKNTLYLQMNSLRAEDTAVYYCARGANWHDTALDYWGQGTLVTVSS VL: DIQMTQSPSSLSASVGDRVTITCRASQSILSYVNWYQQKPGKAPKLVIYAVTSRHSGVPSRFSGSGSGTDFTLTISSLQPEDFATYYCQQSYDSPLTFGGGTKVEIK | 0.319 OD
5 | 371_H08 (antibody, V domains shown) VH: EVQLLESGGGLVQPGGSLRLSCAASGFTFSSYGMNWVRQAPGKGLEWVASINYNGGYKGYADSVKGRFTISRDNSKNTLYLQMNSLRAEDTAVYYCARGANWHDTHLDYWGQGTLVTVSS VL: DIQMTQSPSSLSASVGDRVTITCRASQSIISYVNWYQQKPGKAPKLVIYAVTSRASGVPSRFSGSGSGTDFTLTISSLQPEDFATYYCQQSYDTPLTFGGGTKVEIK | 0.309 OD
6 | 371_F10 (antibody, V domains shown) VH: EVQLLESGGGLVQPGGSLRLSCAASGFTFDSYGMNWVRQAPGKGLEWVSGINYNSGYTSYADSVKGRFTISRDNSKNTLYLQMNSLRAEDTAVYYCARGANWHDTALDYWGQGTLVTVSS VL: DIQMTQSPSSLSASVGDRVTITCRASQSISSYLNWYQQKPGKAPKLVIYAVTSRASGVPSRFSGSGSGTDFTLTISSLQPEDFATYYCQQSYESPLTFGGGTKVEIK | 0.299 OD
7 | 372_G12 (antibody, V domains shown) VH: EVQLLESGGGLVQPGGSLRLSCAASGFTFDSYSMNWVRQAPGKGLEWVAGINYNGGYTGYADSVKGRFTISRDNSKNTLYLQMNSLRAEDTAVYYCARGANWHDTHLDYWGQGTLVTVSS VL: DIQMTQSPSSLSASVGDRVTITCRASQSILTYLNWYQQKPGKAPKLVIYAATSRHSGVPSRFSGSGSGTDFTLTISSLQPEDFATYYCQQSYDSPLTFGGGTKVEIK | 0.439 OD
8 | 371_H10 (antibody, V domains shown) VH: EVQLLESGGGLVQPGGSLRLSCAASGFTFSSYSMNWVRQAPGKGLEWVAGINYNSGYKSYADSVKGRFTISRDNSKNTLYLQMNSLRAEDTAVYYCARGANWHDTHLDYWGQGTLVTVSS VL: DIQMTQSPSSLSASVGDRVTITCRASQSISTYLNWYQQKPGKAPKLLIYAATSRHSGVPSRFSGSGSGTDFTLTISSLQPEDFATYYCQQSYENPLTFGGGTKVEIK | 0.358 OD
9 | 371_H04 (antibody, V domains shown) VH: EVQLLESGGGLVQPGGSLRLSCAASGFTFSSYGMNWVRQAPGKGLEWVSNINYNGGYTGYADSVKGRFTISRDNSKNTLYLQMNSLRAEDTAVYYCARGANWHDTALDYWGQGTLVTVSS VL: DIQMTQSPSSLSASVGDRVTITCRASQSILTYLNWYQQKPGKAPKLLIYAATSRASGVPSRFSGSGSGTDFTLTISSLQPEDFATYYCQQSYNSPLTFGGGTKVEIK | 0.35 OD
10 | 371_G09 (antibody, V domains shown) VH: EVQLLESGGGLVQPGGSLRLSCAASGFTFSSYSMNWVRQAPGKGLEWVANINYNGGYTGYADSVKGRFTISRDNSKNTLYLQMNSLRAEDTAVYYCARGANWHDTALDYWGQGTLVTVSS VL: DIQMTQSPSSLSASVGDRVTITCRASQSILSYLNWYQQKPGKAPKLVIYAATSRASGVPSRFSGSGSGTDFTLTISSLQPEDFATYYCQQSDSTPLTFGGGTKVEIK | 0.315 OD
11 | 371_G04 (antibody, V domains shown) VH: EVQLLESGGGLVQPGGSLRLSCAASGFTFDSYSMNWVRQAPGKGLEWVSGINYNGGYKSYADSVKGRFTISRDNSKNTLYLQMNSLRAEDTAVYYCARGANWHDTALDYWGQGTLVTVSS VL: DIQMTQSPSSLSASVGDRVTITCRASQSILSYLNWYQQKPGKAPKLLIYAATSLHSGVPSRFSGSGSGTDFTLTISSLQPEDFATYYCQQSYESPLTFGGGTKVEIK | 0.325 OD
12 | 371_E10 (antibody, V domains shown) VH: EVQLLESGGGLVQPGGSLRLSCAASGFTFDSYSMNWVRQAPGKGLEWVAGINYNGGYTSYADSVKGRFTISRDNSKNTLYLQMNSLRAEDTAVYYCARGANWHDTALDYWGQGTLVTVSS VL: DIQMTQSPSSLSASVGDRVTITCRASQSISTYLNWYQQKPGKAPKLLIYAVTSRASGVPSRFSGSGSGTDFTLTISSLQPEDFATYYCQQSYNSPLTFGGGTKVEIK | 0.341 OD
13 | 367_D11 (antibody, V domains shown) VH: EVQLLESGGGLVQPGGSLRLSCAASGFTFDSYGMHWVRQAPGKGLEWVSNINYNGGYKSYADSVKGRFTISRDNSKNTLYLQMNSLRAEDTAVYYCARAANWHDTALDYWGQGTLVTVSS VL: DIQMTQSPSSLSASVGDRVTITCRASQSIISYLNWYQQKPGKAPKLLIYAATSRASGVPSRFSGSGSGTDFTLTISSLQPEDFATYYCQQSYDSPLTFGGGTKVEIK | 0.304 OD
14 | 371_F11 (antibody, V domains shown) VH: EVQLLESGGGLVQPGGSLRLSCAASGFTFSSYSMNWVRQAPGKGLEWVSGINYNGGYTSYADSVKGRFTISRDNSKNTLYLQMNSLRAEDTAVYYCARGANWHDTALDYWGQGTLVTVSS VL: DIQMTQSPSSLSASVGDRVTITCRASQSIISYVNWYQQKPGKAPKLLIYAVTSRASGVPSRFSGSGSGTDFTLTISSLQPEDFATYYCQQSYDLPLTFGGGTKVEIK | 0.331 OD
15 | 371_H05 (antibody, V domains shown) VH: EVQLLESGGGLVQPGGSLRLSCAASGFTFSSYGMNWVRQAPGKGLEWVSGINYNSGYKSYADSVKGRFTISRDNSKNTLYLQMNSLRAEDTAVYYCARGANWHDTALDYWGQGTLVTVSS VL: DIQMTQSPSSLSASVGDRVTITCRASQSIISYLNWYQQKPGKAPKLLIYAATSLASGVPSRFSGSGSGTDFTLTISSLQPEDFATYYCQQSYSLPLTFGGGTKVEIK | 0.321 OD
16 | 371_G11 (antibody, V domains shown) VH: EVQLLESGGGLVQPGGSLRLSCAASGFTFSSYGMNWVRQAPGKGLEWVSNINYNSGYTSYADSVKGRFTISRDNSKNTLYLQMNSLRAEDTAVYYCARGANWHDTALDYWGQGTLVTVSS VL: DIQMTQSPSSLSASVGDRVTITCRASQSILSYVNWYQQKPGKAPKLLIYAATSLASGVPSRFSGSGSGTDFTLTISSLQPEDFATYYCQQSYDSPLTFGGGTKVEIK | 0.399 OD
17 | 373_A01 (antibody, V domains shown) VH: EVQLLESGGGLVQPGGSLRLSCAASGFTFSSYGMNWVRQAPGKGLEWVSNINYNGGYTGYADSVKGRFTISRDNSKNTLYLQMNSLRAEDTAVYYCARGANWHDTHLDYWGQGTLVTVSS VL: DIQMTQSPSSLSASVGDRVTITCRASQSIVTYLNWYQQKPGKAPKLVIYATTSRASGVPSRFSGSGSGTDFTLTISSLQPEDFATYYCQQSYNLPLTFGGGTKVEIK | 0.177 OD
18 | 371_H06 (antibody, V domains shown) VH: EVQLLESGGGLVQPGGSLRLSCAASGFTFDSYGMNWVRQAPGKGLEWVSGINYNGGYTSYADSVKGRFTISRDNSKNTLYLQMNSLRAEDTAVYYCARGANWHDTALDYWGQGTLVTVSS VL: DIQMTQSPSSLSASVGDRVTITCRASQSISSYLNWYQQKPGKAPKLVIYAVTSRASGVPSRFSGSGSGTDFTLTISSLQPEDFATYYCQQSYDLPLTFGGGTKVEIK | 0.346 OD
19 | 372_E01 (antibody, V domains shown) VH: EVQLLESGGGLVQPGGSLRLSCAASGFTFDDYSMNWVRQAPGKGLEWVSGINYNGGYKGYADSVKGRFTISRDNSKNTLYLQMNSLRAEDTAVYYCARGANWHDTALDYWGQGTLVTVSS VL: DIQMTQSPSSLSASVGDRVTITCRASQSIVSYLNWYQQKPGKAPKLVIYAATSRHSGVPSRFSGSGSGTDFTLTISSLQPEDFATYYCQQSYDSPLTFGGGTKVEIK | 0.409 OD
20 | 371_G02 (antibody, V domains shown) VH: EVQLLESGGGLVQPGGSLRLSCAASGFTFDSYGMNWVRQAPGKGLEWVASINYNGGYTSYADSVKGRFTISRDNSKNTLYLQMNSLRAEDTAVYYCARGANWHDTHLDYWGQGTLVTVSS VL: DIQMTQSPSSLSASVGDRVTITCRASQSILSYLNWYQQKPGKAPKLLIYAATSRASGVPSRFSGSGSGTDFTLTISSLQPEDFATYYCQQSYDLPLTFGGGTKVEIK | 0.514 OD
21 | 373_A03 (antibody, V domains shown) VH: EVQLLESGGGLVQPGGSLRLSCAASGFTFSDYSMNWVRQAPGKGLEWVANINYNGGYTGYADSVKGRFTISRDNSKNTLYLQMNSLRAEDTAVYYCARGANWHDTALDYWGQGTLVTVSS VL: DIQMTQSPSSLSASVGDRVTITCRASQSILSYLNWYQQKPGKAPKLVIYAATSRASGVPSRFSGSGSGTDFTLTISSLQPEDFATYYCQQSYDNPLTFGGGTKVEIK | 0.189 OD
22 | 367_F06 (antibody, V domains shown) VH: EVQLLESGGGLVQPGGSLRLSCAASGFTFSSYGMNWVRQAPGKGLEWVSSINYNSGYTSYADSVKGRFTISRDNSKNTLYLQMNSLRAEDTAVYYCARAANWHDTALDYWGQGTLVTVSS VL: DIQMTQSPSSLSASVGDRVTITCRASQSISSYVNWYQQKPGKAPKLLIYAVTSRASGVPSRFSGSGSGTDFTLTISSLQPEDFATYYCQQSYDSPLTFGGGTKVEIK | 0.265 OD
